We go through 28 molecules from patent publication US20090104177A1, “PEPTIDES FOR INHIBITING THE INTERACTION OF PROTEIN KINASE A AND PROTEIN KINASE A ANCHOR PROTEINS” (FORSCHUNGSVERBUND BERLIN E.V., priority 2004, published 2009).

No end group written: not given here.

The target of assay [1] is T1, regulatory RIIβ subunits of PKA (Rattus norvegicus, UniProt P12369).
T1 construct: Prof; Dr. Friedrich W. Herberg, University of Kassel, Germany (obtained from an academic laboratory, not a vendor)
Briefly: RII overlay of membrane-bound (SPOT) peptides, radiolabelled RIIβ as probe, densitometry. It counts as binding. The note with it: in words. From the text:
(§1) Peptide libraries were synthesized by means of automatic SPOT synthesis on Whatman 50 cellulose membranes according to standard protocols using Fmoc chemistry and AutoSpot Robot ATE 222 (Intavis Bioanalytical Instruments AG, Cologne). The protective groups of the amino acid side chains were removed using a mixture of trifluoroacetic acid (TFA) in dichloromethane (DCM) (Frank, 1992; Kramer and Schneider-Mergener, 1998). For control, spots (about 50 nmol of peptide per spot) were cut from the cellulose membrane, removed from the membrane by treatment with 0.05 M NaOH, and analyzed using HPLC and MALDI-TOF mass spectrometry.
(§2) • 1. Regulatory RIIα (human) and RIIβ (rat) subunits of PKA, obtained from Prof. Dr. Friedrich W. Herberg, University of Kassel, Germany. • 2. Catalytic subunits of PKA, Promega, Mannheim, Germany, Order No. V5161 • 3. [γ-^32P]ATP, 5000 Ci/mmol, Amersham Biosciences, Brunswick, Germany, Order No. AA0018 • 4. Sephadex G 50, medium Pharmacia, Order No. 17-0043-01 • 5. Phosphate-buffered saline (PBS)
(§3) The ATP concentration was adjusted to 10 μM by addition of non-radioactive ATP (addition of 5 μl of a 1 mM solution). The batch was incubated on ice for another 50 min.
(§4) The reaction was quenched by adding dextran blue and removing free nucleotides. The free ATP was removed on a Sephadex G50 column.
(§5) Non-incorporated nucleotides were separated from the RII subunits by fractionation on Sephadex G 50 columns. • 1. Swelling of the Sephadex G 50 material: 20 g thereof was allowed to swell in 400 ml of PBS at room temperature overnight. Non-settled material was subsequently removed with a Pasteur pipette. The swollen material was aliquoted in 50 ml Falcon tubes and stored at 4° C. For preservation, sodium azide was added to make a final concentration of 0.01%. • 2. The material was poured into a 10 ml sterile disposable pipette sealed with a glass sphere. To settle the column bed, 50 ml of PBS containing 1 mg/ml BSA (bovine serum albumin) was allowed to pass.
(§6) Until used, the column was sealed with parafilm at the top thereof. • 3. The labelled RII subunits (500 μl), together with dextran blue (70 μl of a 20 mg/ml solution), were applied on the column (overall volume=570 μl). • 4. The sample was allowed to migrate into the matrix, followed by filling up with PBS. • 5. A short time before the dextran blue was eluted, collection of fractions was begun (2 fractions of 1.5 ml each, the other fractions 1 ml each). • 6. To determine the incorporation of ^32P, 1% (5.7 μl) of sample upstream of the column (corresponding to 1% of the radioactivity employed) and 3 μl of each fraction were used. • 7. The fractions of the first peak including the probe were combined. The incorporation rate in % was calculated and the specific activity (cpm/μg of protein) was determined.
(§7) • 1. The proteins (40 μg) were separated by means of SDS-PAGE and transferred on a PVDF membrane (PVDF: polyvinylidene fluoride) using a semi-dry electroblotting procedure. The membrane-associated proteins were stained with Ponceau S in order to identify the marker proteins on the membrane. Destaining was effected using TBS. • 2. The membrane was incubated in Blotto/BSA at 4° C. for 16 hours:
(§8) • 3. Blotto/BSA was replaced with fresh one and ^32P-labelled RII subunits were added (10^5 cpm/ml). This was incubated for 4-6 h at room temperature. • 4. The membrane was washed for 4×15 min in Blotto/BSA and for 2×10 min in 10 mM potassium phosphate buffer, pH 7.4, 0.15 M NaCl. • 5. RII-binding proteins were detected by exposition on a phosphoimager plate.
(§9) Identification of AKAP18δ-derived peptides inhibiting the interaction of AKAP proteins with the regulatory RIIα and RIIβ subunits of PKA. A: Peptides derived from the PKA binding domain of AKAP18δ were synthesized on two membranes. The membranes were incubated with radiolabelled regulatory RIIα (upper row) or RIIβ subunits (row below) of the PKA (RII overlay experiment). […]

The target in assay [2] is T2, regulatory RIIα subunits of PKA (Homo sapiens, UniProt P13861).
T2 construct: Prof; Dr. Friedrich W. Herberg, University of Kassel, Germany (obtained from an academic laboratory, not a vendor)
Briefly: RII overlay of membrane-bound (SPOT) peptides, radiolabelled RIIα as probe, densitometry. It counts as binding. The note with it: for binding to RIIα subunits in RII overlay: human RIIα as probe, in words.
Text: as §1, §2, §3, §4, §5, §6, §7, §8, §9

Another assay deals with RII subunits of the PKAs. Briefly: Summary statement on RII binding of AKAP18δ-derived negative control peptides. Particulars: negative controls; in words. From the text: They have in common that binding is no longer present due to structural differences (1, 2) or differences in charge (3, 4).
A further assay deals with human RIIα subunits (Homo sapiens, UniProt P13861). Put plainly: Surface plasmon resonance measurement of peptide binding to RIIα.
Another assay addresses RIIβ subunits from rats (Rattus norvegicus, UniProt P12369). Briefly: Surface plasmon resonance measurement of peptide binding to RIIβ. For orientation: In SPR one partner is held on a chip, and binding of the other changes the refractive index at the surface.
Assay [3] addresses T3, regulatory RIIα subunit of PKA (human) (human, UniProt P13861 1-404, 32P-labelled with the catalytic subunit of PKA when used as probe in the RII overlay experiments).
T3 construct: Radiolabelled probe in RII overlays; format in the surface plasmon resonance measurements is not described; also called human RIIα
Briefly: RII overlay: SPOT peptide on membrane, 32P-labelled RIIα probe, phosphoimager, densitometry as % of AKAP18δ-wt.

In assay [4] the target is T4, regulatory RIIβ subunit of PKA (rat) (rat, UniProt P12369 1-416, 32P-labelled with the catalytic subunit of PKA when used as probe in the RII overlay experiments).
T4 construct: Radiolabelled probe in RII overlays; format in the surface plasmon resonance measurements is not described; also called RIIβ subunit of PKA from rats
Briefly: RII overlay: SPOT peptide on membrane, 32P-labelled RIIβ probe, phosphoimager, densitometry as % of AKAP18δ-wt.

Assay [5] addresses T3, regulatory RIIα subunit of PKA (human). Briefly: RII overlay on SPOT membrane with radiolabelled RIIα.

As a reminder, the Kd is the equilibrium constant for the complex coming apart. A low value points to higher affinity.

T1 sequence (P12369 whole entry): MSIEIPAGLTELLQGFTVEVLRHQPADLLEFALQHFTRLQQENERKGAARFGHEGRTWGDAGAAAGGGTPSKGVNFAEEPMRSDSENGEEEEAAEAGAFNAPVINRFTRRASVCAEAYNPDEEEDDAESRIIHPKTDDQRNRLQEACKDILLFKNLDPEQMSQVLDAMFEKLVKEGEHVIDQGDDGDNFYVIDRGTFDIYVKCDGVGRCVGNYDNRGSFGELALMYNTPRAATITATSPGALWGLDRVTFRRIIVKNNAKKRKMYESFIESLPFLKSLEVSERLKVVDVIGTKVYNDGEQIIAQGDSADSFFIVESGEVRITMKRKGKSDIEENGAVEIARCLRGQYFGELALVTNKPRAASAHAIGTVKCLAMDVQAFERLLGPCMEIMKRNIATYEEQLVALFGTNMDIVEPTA
Sequence of RIIβ subunits from rats (P12369 whole entry): as above
T4 sequence (P12369 whole entry): as above
T2 sequence (P13861 whole entry): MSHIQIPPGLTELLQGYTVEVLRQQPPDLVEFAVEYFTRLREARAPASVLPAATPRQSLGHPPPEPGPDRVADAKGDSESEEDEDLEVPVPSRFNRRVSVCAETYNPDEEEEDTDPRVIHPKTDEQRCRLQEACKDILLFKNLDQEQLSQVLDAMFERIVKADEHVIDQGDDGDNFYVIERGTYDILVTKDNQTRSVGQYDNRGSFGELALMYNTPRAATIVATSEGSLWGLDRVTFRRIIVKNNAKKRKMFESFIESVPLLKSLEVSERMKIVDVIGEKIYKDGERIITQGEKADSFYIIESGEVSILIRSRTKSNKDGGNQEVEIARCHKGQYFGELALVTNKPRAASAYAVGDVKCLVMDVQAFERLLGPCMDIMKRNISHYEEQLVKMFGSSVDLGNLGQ
Sequence of human RIIα subunits (P13861 whole entry): as above
T3 sequence (P13861 whole entry): as above

For the molecule ANDARLVRLNKRLVENAVLKAVQQY [10/11], the “binding to RIIβ subunits in RII overlay” value in assay [1] was “no RIIβ”. Moreover, in assay [2], the “binding to RIIα subunits in RII overlay” value was “bind RIIα”. ANDARLVRLPKRLVENAVLKAVQQY [10/12]: in assay [1], the “binding to RIIβ subunits in RII overlay” value is “no RIIβ”. Also, the “binding to RIIα subunits in RII overlay” value in assay [2] is given as “bind RIIα”. Turning to “ANDARLVRLSKRLRENAVLKAVQQY [A18δRIIα Hs1]”, in assay [2], the “binding to RIIα subunits in RII overlay” value is on record as “binding to RIIα”.

On to “ANDARLVRLSKRLVENAVLKAVQQY [peptide No. 7]”, for which the “difference in binding of the two PKA subunits (RIIα vs RIIβ)” value in assay [2] (RII overlay on two membranes, quantitative evaluation (FIG. 3)) was “marked difference”. Turning to ANDARLVRLSKRLVENAVLKFVQQY [21/4], the “binding to RIIβ subunits in RII overlay” value in assay [1] is given as “vice versa”; in assay [1] (listed as A18δRIIβRn1), “binding to RIIβ”; in assay [1] (listed as A18δRIIβRnl), “selectively binds RIIβ subunits”. In addition, the “binding to RIIα subunits in RII overlay” value in assay [2] is reported as “vice versa”. On to “ANDARLVRLSKRLYENAVLKAVQQY [A18δRIIα Hs2]”, for which the “binding to RIIα subunits in RII overlay” value in assay [2] is given as “binding to RIIα”. For “PEDAELVRLDKRLPENAPLKAVQQY (also: phosphorylated; listed as Homo sapiens) [AKAP18δ-phos]”, in the assay on RII subunits of the PKAs, the “binding of RII subunits of the PKAs” value is “absent binding”. PEDAELVRLSKRLPENAPLKAVQQY [AKAP18δ-PP]: the “RIIα binding KD” value on human RIIα subunits is “no binding”. Moreover, the “binding of RII subunits of the PKAs” value in the assay on RII subunits of the PKAs was “absent binding”. The “RIIβ binding KD” value on RIIβ subunits from rats is “no binding”. For PEDAELVRLSKRLPENAVLKAVQQY [AKAP18δ-P], the “RIIα binding KD” value on human RIIα subunits was “no binding”. Also, the “binding of RII subunits of the PKAs” value in the assay with RII subunits of the PKAs was “absent binding”. Besides, the “RIIβ binding KD” value at RIIβ subunits from rats is “no binding”.

On to PEDAELVRLSKRLVENAVLKAVQQY [AKAP18δ-wt], for which the dissociation constant Kd at human RIIα subunits was in the range of 0.4 to 1.5 nM; on RIIβ subunits from rats, 1 to 6 nM. Turning to PEDAELVRLSKRLVENAVLQAVQQY (AKAP18δ-derived; also called No. N) [Peptide 14], the binding result in assay [3] and in assay [4] was “binds” each time. As to PEDAELVRLSKRLVENAVLNGNQQY (AKAP18δ-derived; also called No. Q) [Peptide 17], the binding result in assay [3] and in assay [4] was “binds” throughout. For PEDAELVRLSKRLVENAVLNGVQQY (AKAP18δ-derived; also called No. O) [Peptide 15], the binding result in assay [3] and in assay [4] was “binds” each time.

On to PEDAELVRLSKRLVENAVKNGAQDY (AKAP18δ-derived; also called No. S) [Peptide 19], for which the binding result in assay [3] and in assay [4] was “binds” in each case. With PEDAELVRLSKRLVENAVKNGNQQY (AKAP18δ-derived; also called No. R) [Peptide 18], the binding result in assay [3] and in assay [4] was “binds” each time. As for PEDAELVRLSKRLVENAVLNGQQQY (AKAP18δ-derived; also called No. P) [Peptide 16], the binding result in assay [3] and in assay [4] was “binds” each time. With ANDARLVRLSKRLVENAVLKAVQQY (also called peptide 7; No. G) [peptide No. 7 (AKAP18δ-derived, FIG. 3)], the binding result in assay [3] and in assay [4] was “binds” in each case. With ASDARLVRLSKRLVENAVLKAVQQY (AKAP18δ-derived; also called No. H) [Peptide 8], the binding result in assay [3] and in assay [4] was “binds” throughout. With ASDAQLVRLSKRLVENAVLKAVQQY (AKAP18δ-derived; also called No. C) [Peptide 3], the binding result in assay [3] and in assay [4] was “binds” each time. ANDAKTQRLSQRLVENAVLKAVQQY (AKAP18δ-derived; also called No. L) [Peptide 12]: the binding result in assay [3] and in assay [4] was “binds” each time.

B1: A18δRIIαHs1 (14/14) (peptide)
peptide: ANDARLVRLSKRLRENAVLKAVQQY
notes: Member of the substitution library of peptide 7 (row 14, peptide 14); also called No. BB
As for B1, in assay [5], the binding result is listed as “binds”. For ARDAQLVRLSKRLVENAVLKAVQQY (AKAP18δ-derived; also called No. F) [Peptide 6], the binding result in assay [3] and in assay [4] was “binds” throughout. Take ANDAKTERLSKRLVENAVLKAVQQY (AKAP18δ-derived; also called No. J) [Peptide 10]: the binding result in assay [3] and in assay [4] was “binds” each time. With ASDAKLVRLSKRLVENAVLKAVQQY (AKAP18δ-derived; also called No. D) [Peptide 4], the binding result in assay [3] and in assay [4] was “binds” in each case. For ASDAKTVRLSKRLVENAVLKAVQQY (AKAP18δ-derived; also called No. I) [Peptide 9], the binding result in assay [3] and in assay [4] was “binds” throughout.

B2: A18δRIIαHs2 (14/19) (peptide)
peptide: ANDARLVRLSKRLYENAVLKAVQQY
notes: Member of the substitution library of peptide 7 (row 14, peptide 19); also called No. CC
For B2, the binding result in assay [5] was “binds”. For the molecule ARDAKLVRLSKRLVENAVLKAVQQY (AKAP18δ-derived; also called No. E) [Peptide 5], the binding result in assay [3] and in assay [4] was “binds” throughout. For ANDAKTERLSQRLVENAVLKAVQQY (AKAP18δ-derived; also called No. K) [Peptide 11], the binding result in assay [3] and in assay [4] was “binds” each time.
